Like-named read-outs stand apart in the source and are kept apart here. Values belong to the binder of their own block, whether it stands above or below them.
How the values were obtained:
[1] = molecular target: T1, FANCI (human);FANCD2 (human) (human;human, UniProt Q9NVI1;Q9BXW9 1-1328;1-1451, |); assay: EMSA
[2] = molecular target: FANCI (chicken);FANCD2 (chicken) (chicken;chicken, UniProt B0I564;Q68Y81 1-1338;1-1439, |); assay: EMSA
[3] = molecular target: FANCI (human) (human, UniProt Q9NVI1 1-1328); assay: EMSA
FANCI (human), sequence (Q9NVI1 whole entry): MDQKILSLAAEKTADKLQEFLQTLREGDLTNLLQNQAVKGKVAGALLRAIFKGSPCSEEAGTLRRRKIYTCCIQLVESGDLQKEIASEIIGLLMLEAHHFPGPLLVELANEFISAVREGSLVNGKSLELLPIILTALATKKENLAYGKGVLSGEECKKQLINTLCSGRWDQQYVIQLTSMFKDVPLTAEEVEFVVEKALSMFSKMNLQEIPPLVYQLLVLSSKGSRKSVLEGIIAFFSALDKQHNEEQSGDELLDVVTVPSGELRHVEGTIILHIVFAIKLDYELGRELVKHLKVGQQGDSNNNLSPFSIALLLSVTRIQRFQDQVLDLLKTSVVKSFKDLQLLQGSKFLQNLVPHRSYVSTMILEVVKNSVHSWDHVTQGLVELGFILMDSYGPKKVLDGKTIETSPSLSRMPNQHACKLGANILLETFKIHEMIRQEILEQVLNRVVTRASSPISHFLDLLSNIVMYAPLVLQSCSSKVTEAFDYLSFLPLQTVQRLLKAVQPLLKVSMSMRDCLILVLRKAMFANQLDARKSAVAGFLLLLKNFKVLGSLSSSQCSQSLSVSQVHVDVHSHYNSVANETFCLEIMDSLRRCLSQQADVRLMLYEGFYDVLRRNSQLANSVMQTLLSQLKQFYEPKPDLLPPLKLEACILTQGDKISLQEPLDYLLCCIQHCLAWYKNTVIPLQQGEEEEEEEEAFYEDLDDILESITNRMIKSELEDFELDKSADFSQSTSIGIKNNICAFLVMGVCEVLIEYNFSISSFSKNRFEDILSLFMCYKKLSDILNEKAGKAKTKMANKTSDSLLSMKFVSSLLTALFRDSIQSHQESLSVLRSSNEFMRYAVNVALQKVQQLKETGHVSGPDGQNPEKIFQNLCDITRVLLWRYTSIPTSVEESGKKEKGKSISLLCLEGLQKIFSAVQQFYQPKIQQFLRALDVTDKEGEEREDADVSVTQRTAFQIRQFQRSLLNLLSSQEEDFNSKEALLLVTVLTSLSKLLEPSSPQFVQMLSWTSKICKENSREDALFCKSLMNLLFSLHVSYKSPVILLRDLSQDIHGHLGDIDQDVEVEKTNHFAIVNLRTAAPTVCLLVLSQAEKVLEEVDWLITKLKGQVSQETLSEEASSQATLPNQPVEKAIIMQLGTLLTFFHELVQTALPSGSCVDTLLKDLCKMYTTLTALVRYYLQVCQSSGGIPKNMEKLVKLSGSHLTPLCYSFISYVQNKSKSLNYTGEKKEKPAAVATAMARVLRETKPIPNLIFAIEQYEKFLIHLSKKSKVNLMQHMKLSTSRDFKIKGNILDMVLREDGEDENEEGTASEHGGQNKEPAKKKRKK

[4] = molecular target: T2, FANCI (chicken) (chicken, UniProt B0I564 1-1338); assay: EMSA
T2 sequence: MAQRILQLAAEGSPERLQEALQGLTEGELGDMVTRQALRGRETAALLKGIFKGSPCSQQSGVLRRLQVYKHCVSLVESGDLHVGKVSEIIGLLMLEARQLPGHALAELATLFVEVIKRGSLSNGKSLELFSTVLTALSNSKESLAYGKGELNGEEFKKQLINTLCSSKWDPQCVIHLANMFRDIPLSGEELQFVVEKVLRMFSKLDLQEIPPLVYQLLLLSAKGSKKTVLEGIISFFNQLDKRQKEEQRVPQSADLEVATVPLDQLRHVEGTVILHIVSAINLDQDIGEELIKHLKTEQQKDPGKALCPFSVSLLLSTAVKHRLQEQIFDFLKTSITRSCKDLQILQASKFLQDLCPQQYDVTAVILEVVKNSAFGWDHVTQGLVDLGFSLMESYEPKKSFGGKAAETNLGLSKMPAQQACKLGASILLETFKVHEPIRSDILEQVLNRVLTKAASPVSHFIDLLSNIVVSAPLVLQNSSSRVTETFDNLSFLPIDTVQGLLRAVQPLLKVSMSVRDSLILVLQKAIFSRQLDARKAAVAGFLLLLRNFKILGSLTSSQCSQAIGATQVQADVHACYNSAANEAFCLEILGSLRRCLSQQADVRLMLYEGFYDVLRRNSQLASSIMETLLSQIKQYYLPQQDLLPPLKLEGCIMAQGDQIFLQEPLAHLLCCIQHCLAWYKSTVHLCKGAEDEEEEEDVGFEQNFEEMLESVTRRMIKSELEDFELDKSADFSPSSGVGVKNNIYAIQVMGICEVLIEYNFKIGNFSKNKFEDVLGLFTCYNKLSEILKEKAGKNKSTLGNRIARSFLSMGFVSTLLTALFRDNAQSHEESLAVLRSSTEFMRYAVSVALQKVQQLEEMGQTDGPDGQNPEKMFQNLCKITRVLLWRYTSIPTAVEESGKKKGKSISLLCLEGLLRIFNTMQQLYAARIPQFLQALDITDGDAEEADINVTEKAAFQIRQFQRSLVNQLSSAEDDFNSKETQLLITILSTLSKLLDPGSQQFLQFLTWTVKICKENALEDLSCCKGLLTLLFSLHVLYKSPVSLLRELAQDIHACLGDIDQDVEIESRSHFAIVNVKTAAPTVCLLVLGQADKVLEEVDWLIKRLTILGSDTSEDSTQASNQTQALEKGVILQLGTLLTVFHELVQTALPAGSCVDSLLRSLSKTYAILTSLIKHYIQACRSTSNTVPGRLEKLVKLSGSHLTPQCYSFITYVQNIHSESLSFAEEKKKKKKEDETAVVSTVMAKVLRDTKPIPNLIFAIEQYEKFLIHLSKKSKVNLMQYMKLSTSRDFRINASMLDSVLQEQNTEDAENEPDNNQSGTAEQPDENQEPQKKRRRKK

[5] = molecular target: FANCD2 (chicken) (chicken, UniProt Q68Y81 1-1439); assay: EMSA
FANCD2 (chicken), sequence (Q68Y81 whole entry): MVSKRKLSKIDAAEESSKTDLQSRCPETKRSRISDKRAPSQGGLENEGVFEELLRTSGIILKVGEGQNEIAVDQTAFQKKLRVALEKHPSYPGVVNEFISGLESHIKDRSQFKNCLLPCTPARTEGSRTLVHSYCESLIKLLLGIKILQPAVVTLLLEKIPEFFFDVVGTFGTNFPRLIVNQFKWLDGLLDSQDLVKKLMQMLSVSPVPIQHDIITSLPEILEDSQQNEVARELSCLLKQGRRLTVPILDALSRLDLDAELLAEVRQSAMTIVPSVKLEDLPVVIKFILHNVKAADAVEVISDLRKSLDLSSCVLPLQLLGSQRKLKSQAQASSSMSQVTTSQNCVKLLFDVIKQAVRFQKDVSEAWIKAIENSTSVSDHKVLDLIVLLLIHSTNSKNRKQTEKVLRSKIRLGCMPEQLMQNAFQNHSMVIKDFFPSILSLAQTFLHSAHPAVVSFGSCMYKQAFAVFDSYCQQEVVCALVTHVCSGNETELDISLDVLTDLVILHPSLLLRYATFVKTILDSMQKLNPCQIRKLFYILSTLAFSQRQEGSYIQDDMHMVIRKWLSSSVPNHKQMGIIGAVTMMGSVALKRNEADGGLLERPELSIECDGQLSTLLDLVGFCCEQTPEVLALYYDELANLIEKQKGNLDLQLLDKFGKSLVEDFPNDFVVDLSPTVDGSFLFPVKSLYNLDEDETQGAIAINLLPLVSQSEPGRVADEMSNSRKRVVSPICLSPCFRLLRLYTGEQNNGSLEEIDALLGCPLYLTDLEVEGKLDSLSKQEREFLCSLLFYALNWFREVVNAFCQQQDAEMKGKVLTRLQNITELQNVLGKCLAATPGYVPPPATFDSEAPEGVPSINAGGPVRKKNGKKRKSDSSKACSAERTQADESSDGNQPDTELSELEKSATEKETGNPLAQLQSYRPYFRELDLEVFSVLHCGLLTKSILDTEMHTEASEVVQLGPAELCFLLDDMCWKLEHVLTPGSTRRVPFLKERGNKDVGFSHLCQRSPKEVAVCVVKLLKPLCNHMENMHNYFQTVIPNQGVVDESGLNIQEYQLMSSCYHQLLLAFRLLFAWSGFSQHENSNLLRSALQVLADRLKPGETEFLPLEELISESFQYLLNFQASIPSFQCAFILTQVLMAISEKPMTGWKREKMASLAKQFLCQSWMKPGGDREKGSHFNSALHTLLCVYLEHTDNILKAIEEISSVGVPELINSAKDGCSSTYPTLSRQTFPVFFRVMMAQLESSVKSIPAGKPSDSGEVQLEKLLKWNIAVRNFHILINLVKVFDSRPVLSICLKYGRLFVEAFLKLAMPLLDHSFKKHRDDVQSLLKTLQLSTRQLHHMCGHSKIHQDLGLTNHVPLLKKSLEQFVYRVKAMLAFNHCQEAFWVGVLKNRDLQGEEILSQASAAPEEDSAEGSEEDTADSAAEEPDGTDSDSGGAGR

[6] = molecular target: chicken FANCD2 (His-tagged) (chicken, UniProt Q68Y81 1-1439); assay: SEC
chicken FANCD2 (His-tagged), sequence (Q68Y81 whole entry): as above

[7] = molecular target: T1, FANCI (human);FANCD2 (human); assay: EMSA; remark: listed apart in the source
[8] = molecular target: T1, FANCI (human);FANCD2 (human); assay: EMSA; remark: listed apart in the source
[9] = molecular target: T1, FANCI (human);FANCD2 (human); assay: EMSA; remark: listed apart in the source
[10] = molecular target: T1, FANCI (human);FANCD2 (human); assay: EMSA; remark: listed apart in the source

T1 sequence (Q9NVI1 whole entry, chain 1 of 2): as the sequence (Q9NVI1 whole entry) above
T1 sequence (Q9BXW9 whole entry, chain 2 of 2): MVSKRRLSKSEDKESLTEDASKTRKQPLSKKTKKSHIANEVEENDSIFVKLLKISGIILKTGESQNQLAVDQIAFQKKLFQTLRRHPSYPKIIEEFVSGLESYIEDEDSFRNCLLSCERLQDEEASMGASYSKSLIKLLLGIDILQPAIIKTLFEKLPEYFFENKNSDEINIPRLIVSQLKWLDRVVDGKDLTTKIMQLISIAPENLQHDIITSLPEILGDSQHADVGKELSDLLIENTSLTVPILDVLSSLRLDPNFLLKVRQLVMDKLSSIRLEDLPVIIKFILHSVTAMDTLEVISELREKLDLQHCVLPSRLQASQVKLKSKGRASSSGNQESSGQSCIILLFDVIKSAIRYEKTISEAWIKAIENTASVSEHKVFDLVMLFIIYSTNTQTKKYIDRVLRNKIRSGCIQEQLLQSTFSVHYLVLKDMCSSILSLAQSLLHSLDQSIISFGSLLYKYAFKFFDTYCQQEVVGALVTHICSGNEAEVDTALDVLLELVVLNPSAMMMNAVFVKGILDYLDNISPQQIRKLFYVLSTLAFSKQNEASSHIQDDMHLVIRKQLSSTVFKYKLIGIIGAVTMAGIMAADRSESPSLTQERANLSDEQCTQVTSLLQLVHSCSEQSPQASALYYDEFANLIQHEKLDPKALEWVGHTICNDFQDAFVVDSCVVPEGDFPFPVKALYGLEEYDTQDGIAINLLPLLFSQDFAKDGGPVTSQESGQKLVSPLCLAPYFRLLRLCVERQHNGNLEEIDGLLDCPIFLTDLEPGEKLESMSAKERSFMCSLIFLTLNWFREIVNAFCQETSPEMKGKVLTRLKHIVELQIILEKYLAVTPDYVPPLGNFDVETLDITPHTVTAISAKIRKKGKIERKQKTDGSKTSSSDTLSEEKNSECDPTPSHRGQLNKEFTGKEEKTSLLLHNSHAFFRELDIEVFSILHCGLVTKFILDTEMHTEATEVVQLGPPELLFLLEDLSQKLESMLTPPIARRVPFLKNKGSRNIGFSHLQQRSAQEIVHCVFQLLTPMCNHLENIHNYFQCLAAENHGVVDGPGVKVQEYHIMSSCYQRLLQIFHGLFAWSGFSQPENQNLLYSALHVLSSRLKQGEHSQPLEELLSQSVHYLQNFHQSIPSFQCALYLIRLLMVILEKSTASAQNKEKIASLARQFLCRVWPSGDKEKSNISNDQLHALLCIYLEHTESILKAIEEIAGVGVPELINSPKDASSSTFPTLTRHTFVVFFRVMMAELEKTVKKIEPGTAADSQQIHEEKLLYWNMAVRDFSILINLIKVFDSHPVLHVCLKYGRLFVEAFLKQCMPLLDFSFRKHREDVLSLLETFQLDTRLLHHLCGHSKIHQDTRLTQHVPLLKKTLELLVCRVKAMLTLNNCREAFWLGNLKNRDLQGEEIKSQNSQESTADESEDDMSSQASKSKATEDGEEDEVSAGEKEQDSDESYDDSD
FANCI (chicken);FANCD2 (chicken), sequence (Q68Y81 whole entry, one chain of several): as the sequence (Q68Y81 whole entry) above

B1: ssDNA(G48) (ssDNA)
DNA: GGATGAGAGGGCATGTGAGTGCGTGGCTGAGAGCGGGATTGCTGAGTCTGGTGCTGGGAT
binding result [1]: binds

B2: ssDNA / ssDNA(G28) (ssDNA)
DNA: TGATAAGAGGTCATTTGAATTCATGGCTTAGAGCTTAATTGCTGAATCTGGTGCTGGGAT
binding result [1]: binds

B3: RNA:DNA hybrid (DNA:RNA)
DNA: TGATAAGAGGTCATTTGAATTCATGGCTTAGAGCTTAATTGCTGAATCTGGTGCTGGGAT
RNA: AUCCCAGCACCAGAUUCAGCAAUUAAGCUCUAAGCCAUGAAUUCAAAUGACCUCUUAUCA
binding result [2]: binds
binding result [3]: binds
binding result [4]: binds
binding result [5]: binds

B4: dsDNA / dsDNA(G28) (dsDNA)
DNA 1: TGATAAGAGGTCATTTGAATTCATGGCTTAGAGCTTAATTGCTGAATCTGGTGCTGGGAT
DNA 2: ATCCCAGCACCAGATTCAGCAATTAAGCTCTAAGCCATGAATTCAAATGACCTCTTATCA
binding result [1]: binds

binding result [6]: binds
B5: chicken FANCI (His-tagged) (natural protein, UniProt B0I564 1-1338, looked up)
chain: MAQRILQLAAEGSPERLQEALQGLTEGELGDMVTRQALRGRETAALLKGIFKGSPCSQQSGVLRRLQVYKHCVSLVESGDLHVGKVSEIIGLLMLEARQLPGHALAELATLFVEVIKRGSLSNGKSLELFSTVLTALSNSKESLAYGKGELNGEEFKKQLINTLCSSKWDPQCVIHLANMFRDIPLSGEELQFVVEKVLRMFSKLDLQEIPPLVYQLLLLSAKGSKKTVLEGIISFFNQLDKRQKEEQRVPQSADLEVATVPLDQLRHVEGTVILHIVSAINLDQDIGEELIKHLKTEQQKDPGKALCPFSVSLLLSTAVKHRLQEQIFDFLKTSITRSCKDLQILQASKFLQDLCPQQYDVTAVILEVVKNSAFGWDHVTQGLVDLGFSLMESYEPKKSFGGKAAETNLGLSKMPAQQACKLGASILLETFKVHEPIRSDILEQVLNRVLTKAASPVSHFIDLLSNIVVSAPLVLQNSSSRVTETFDNLSFLPIDTVQGLLRAVQPLLKVSMSVRDSLILVLQKAIFSRQLDARKAAVAGFLLLLRNFKILGSLTSSQCSQAIGATQVQADVHACYNSAANEAFCLEILGSLRRCLSQQADVRLMLYEGFYDVLRRNSQLASSIMETLLSQIKQYYLPQQDLLPPLKLEGCIMAQGDQIFLQEPLAHLLCCIQHCLAWYKSTVHLCKGAEDEEEEEDVGFEQNFEEMLESVTRRMIKSELEDFELDKSADFSPSSGVGVKNNIYAIQVMGICEVLIEYNFKIGNFSKNKFEDVLGLFTCYNKLSEILKEKAGKNKSTLGNRIARSFLSMGFVSTLLTALFRDNAQSHEESLAVLRSSTEFMRYAVSVALQKVQQLEEMGQTDGPDGQNPEKMFQNLCKITRVLLWRYTSIPTAVEESGKKKGKSISLLCLEGLLRIFNTMQQLYAARIPQFLQALDITDGDAEEADINVTEKAAFQIRQFQRSLVNQLSSAEDDFNSKETQLLITILSTLSKLLDPGSQQFLQFLTWTVKICKENALEDLSCCKGLLTLLFSLHVLYKSPVSLLRELAQDIHACLGDIDQDVEIESRSHFAIVNVKTAAPTVCLLVLGQADKVLEEVDWLIKRLTILGSDTSEDSTQASNQTQALEKGVILQLGTLLTVFHELVQTALPAGSCVDSLLRSLSKTYAILTSLIKHYIQACRSTSNTVPGRLEKLVKLSGSHLTPQCYSFITYVQNIHSESLSFAEEKKKKKKEDETAVVSTVMAKVLRDTKPIPNLIFAIEQYEKFLIHLSKKSKVNLMQYMKLSTSRDFRINASMLDSVLQEQNTEDAENEPDNNQSGTAEQPDENQEPQKKRRRKK

B6: ssRNA(G48) (ssRNA)
RNA: GGAUGAGAGGGCAUGUGAGUGCGUGGCUGAGAGCGGGAUUGCUGAGUCUGGUGCUGGGAU
binding result [1]: binds

B7: R-loop(G45) = R-loop(GGC) (mixed)
DNA 1: CATTGCATATTTAAAACATGTTGGAGTGAGTGCGTGGCTGAGATCGGGATTGCTGAGTCTGGTGCTTCAAATGACCTCTTATCAAGTGAC
RNA: CGUGGUCUGAGUCGUUAGGGCUAGAGUCGGUGCGUGAGUG
DNA 2: GTCACTTGATAAGAGGTCATTTGAACACTCACGCACCGACTCTAGCCCTAACGACTCAGACCACGTCCAACATGTTTTAAATATGCAATG
binding result [7]: binds

B8: R-loop(G30_G-quad) (mixed)
DNA 1: CATTGCATATTTAAAACATGTTGGATTTAATTCAGGGCTTAGGGCTTGGGTACTGGGTCTAATACTTCAAATGACCTCTTATCAAGTGAC
RNA: CGUGGUCUGAGUCGUUAGGGCUAGAGUCGGUGCGUGAGUG
DNA 2: GTCACTTGATAAGAGGTCATTTGAACACTCACGCACCGACTCTAGCCCTAACGACTCAGACCACGTCCAACATGTTTTAAATATGCAATG
binding result [8]: binds

B9: R-loop(GAT) (mixed)
DNA 1: CATTGCATATTTAAAACATGTTGGAGTGAGTGCGTGGCTGAGATCGGGATTGCTGAGTCTGGTGCTTCAAATGACCTCTTATCAAGTGAC
RNA: AAAAAAAUAAAAAAAUAAAAAAAAUAAAAAAAUAAAAAAA
DNA 2: GTCACTTGATAAGAGGTCATTTGAATTTTTTTATTTTTTTATTTTTTTTATTTTTTTATTTTTTTTCCAACATGTTTTAAATATGCAATG
binding result [9]: binds

B10: D-loop(GGC) (structured_DNA)
DNA 1: CATTGCATATTTAAAACATGTTGGAGTGAGTGCGTGGCTGAGATCGGGATTGCTGAGTCTGGTGCTTCAAATGACCTCTTATCAAGTGAC
DNA 2: CGTGGTCTGAGTCGTTAGGGCTAGAGTCGGTGCGTGAGTG
DNA 3: GTCACTTGATAAGAGGTCATTTGAACACTCACGCACCGACTCTAGCCCTAACGACTCAGACCACGTCCAACATGTTTTAAATATGCAATG
binding result [10]: binds

B11: ssRNA / ssRNA(G28) (ssRNA)
RNA: UGAUAAGAGGUCAUUUGAAUUCAUGGCUUAGAGCUUAAUUGCUGAAUCUGGUGCUGGGAU
binding result [1]: binds
binding result [2]: binds
binding result [3]: binds
binding result [4]: binds
binding result [5]: binds

B12: dsRNA / dsRNA(G28) (dsRNA)
RNA 1: UGAUAAGAGGUCAUUUGAAUUCAUGGCUUAGAGCUUAAUUGCUGAAUCUGGUGCUGGGAU
RNA 2: AUCCCAGCACCAGAUUCAGCAAUUAAGCUCUAAGCCAUGAAUUCAAAUGACCUCUUAUCA
binding result [2]: binds
binding result [3]: binds
binding result [4]: binds
binding result [5]: binds
